Measured values as given in the nanobody polyreactivity screen of Harvey et al. (2022).

Experiment: yeast display, Sf9 membrane polyspecificity reagent, FACS + sequencing; frameworks hold sequencing errors
How it was run: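 In a synthetic yeast display library (Saccharomyces cerevisiae BJ5465), nanobody expression was induced with galactose for 36–48 hours. FACS gates were set low and high (top ~1%) using anti-HA fluorescence for expression and streptavidin fluorescence for binding of the Sf9 membrane reagent. Each polyreactivity label is drawn from the gate of origin.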
In the case of “QVQLVESGGGLVQAGGSPRLSCAASGSIFSRNTMGWYRQAPGKERELVATITSGSNTNYADSVKGRFTISRDNAKNTVYLQMNSLKPEDTAVYYWGQGTQVTVSS”, the “polyreactivity (PSR sort gate)” value is reported as “low polyreactivity”.
For “QVQLVESGGGLVQAGGSPRLSCAASGSTFVPYDMGWYRQAPAKERELVAAISRGGSTYYADSVKGRFTISRDNAKNTFYLQMNSLKPEDTAVYYCDARARICTVDYWVQGTQVTVSS”, the “polyreactivity (PSR sort gate)” value was “high polyreactivity”.
In the case of “QVQLVESGGGLVQAGGSQRLSCDSSGSTFRYYAMGWYRPAPGKQRELVAVITWNGGGTYYADSMKGRFTISRDNAKNNVYLHMNSLKPVDTAVYYCAADASLYTDEYDNWGLGTQVTVSS”, the “polyreactivity (PSR sort gate)” value is reported as “low polyreactivity”.
In the case of “QVQLVESGGGLVQAGGSRLSCAASGRIFPVYAMGWYIQAPGKERELVAGINSSGDNTYYADSVKGRFTISRDNAKNTVYLQMNSLKPEDTAVYYCAAYYPYYVPYGFDYCGQGTQVTVSS”, the “polyreactivity (PSR sort gate)” value is reported as “low polyreactivity”.
In the case of “QVQLVESGGGLVQAGGSRPLSCAASGFIFDSNAMGWYRQAPGKGTDLVAAISWSGTSTFYADSVKGRFTISRDNAKNTVYLQMNSLNPEDTAVYYCAAKYGRRGFNRYGYWGQGTQVTVSS”, the “polyreactivity (PSR sort gate)” value is reported as “high polyreactivity”.
With “QVQLVESGGGLVQAGGSRRLSCAAAGIIFYAYAMGWYRQAPGKEREFVARISRGGSTNYADSVKGRFTLSRDNAKNTVYLQMNSLKPEDTAVYYCAAYYAYLRYGGLYEYWGQGTQVTVSS” the “polyreactivity (PSR sort gate)” value was “high polyreactivity”.
For “QVQLVESGGGLVQAGGSRRLSCAASGFTFHYYAMGWYRQAPGKERELVAVITSGGSTTYADSVKGRFTISRDNAKNTVYLQMNSLKPEDTAVYYCATDNPFLWWFRPDQHGMGYWGQGTQVTVSS”, the “polyreactivity (PSR sort gate)” value was “low polyreactivity”.
For “QVQLVESGGGLVQAGGSRRLSCAASGRFFSAYAMGWYRQAPGKDRELVAAITWSGANTDYADSVKGRFTISRDNANNTVYLQMNSLKPEDTAVYYCNASVGRDSAYDYWGQGTQVTVSS”, the “polyreactivity (PSR sort gate)” value was “low polyreactivity”.
In the case of “QVQLVESGGGLVQAGGSRRLSCAASGRIFGWYAMGWYRQAPGKERELVAAISRGGTRTNYADSVKGRFTISRDNAKNTGYLKMNSLKPEDTAVYYCASESFYSQFDYWGQGSQVTVSS”, the “polyreactivity (PSR sort gate)” value is reported as “high polyreactivity”.
For “QVQLVESGGGLVQAGGSRRLSCAASGRTFDFYAMGWYRQAPGKERELVAAITGADTSTYYADSVKGRFTISRDNAMNTDYLQMNSLKPEDTAVYYCASDGQWAYTVDPYVIYYRLDYWGQGTQVTVSS”, the “polyreactivity (PSR sort gate)” value was “low polyreactivity”.
For “QVQLVESGGGLVQAGGSRRLSCAASGRTFFYNAMGWYRQAPGKERELLAAISYSGGSTYYADSVKGRFTISRDNAKNTVYLQMNSLKPEDTAVYYCAARDKTRSVRRTGMDYWGQGTQVTVSS”, the “polyreactivity (PSR sort gate)” value was “high polyreactivity”.
With “QVQLVESGGGLVQAGGSRRLSCAASGRTFQYYAMGCYRQATGKERELVAAINNSGGSTYYSDSVKGRFTISRDNAKNTFYLQMNSLKQEDTAVYYCAAVSYRRHFGPYNYWGQGTQVTVSS” the “polyreactivity (PSR sort gate)” value was “low polyreactivity”.
In the case of “QVQLVESGGGLVQAGGSRRLSCAASGRTSTYYAMGWYRQAPGKERELVAVITRGGSTYYADSVKGRFTISRDNAKNTVYLQMNSLKPEDTAVSYCNADGRVQRKYDYWGQGTQVTVSS”, the “polyreactivity (PSR sort gate)” value is reported as “high polyreactivity”.
For “QVQLVESGGGLVQAGGSRRLSCAASGSTFDFYVMGWYRQAPGKERELVAAIRWSGGSTYYADSVKGRFTISRDNAKNTVDLPMTRLKPEDTAVDYCPADGDHYGYSYYYGYGYWGQGTQVTVSS”, the “polyreactivity (PSR sort gate)” value was “high polyreactivity”.
With “QVQLVESGGGLVQAGGSRRLSCAASGSTFRGNAMGWYRQAPGKERELVAASTWSGDDTYYADSVKGRFTISRDNAKNTVYLQMNSLKPEDTPVSYCAADLAAFTLAVADTYDYWGQGTQVTVSS” the “polyreactivity (PSR sort gate)” value was “low polyreactivity”.
With “QVQLVESGGGLVQAGGSRRLSCAASGSTFRGNARGRYRQAPGKERELVAAITWSGDDTYYADSVKGRFTISRDNAKNTVYIQMNSLKPEDTAVYYCAADVQPDTRSTPEMDYWGQGTQVTVSS” the “polyreactivity (PSR sort gate)” value was “low polyreactivity”.
For “QVQLVESGGGLVQAGGSRRLSCAGSGSTVTGYAMGWYRQAPGKDRELVAAISSRGGSTYYADSVKGRFTISRDNAKTTVYLQMNSLKPEDTAGYYCATSYKSEQYHGKPFYYWGQGTQVTVSS”, the “polyreactivity (PSR sort gate)” value was “high polyreactivity”.
With “QVQLVESGGGLVQAGGSRSLSCAASGRTFTLNVMGWYRQAPGKERELVAAISTSSGRTYYADSVKGRFTISRDNAKNTVYLQMNSLKPEDTAVYYCNAVAHRQAQGDWGQGTQVTVSS” the “polyreactivity (PSR sort gate)” value was “low polyreactivity”.
For “QVQLVESGGGLVQAGGSVRLSCAASGRIFRYYALGWYRQAPGQEREWVAGITRGGTTNYADSVKGRFTISRDNATNTVSLQMNSLKPEDTAVYYCAADTRRGIIGYDYWGQGTQVTVSS”, the “polyreactivity (PSR sort gate)” value was “high polyreactivity”.
For “QVQLVESGGGLVQAGGSVRLSCAASGSICFYAMGWYRQAPGKERELVAAISWRGGSTYYADSVKGRFTISRDNAKNTVYLQMNSLKPEDTAVYYCAKATRRYDVYTYGYWGQGTQVTVSS”, the “polyreactivity (PSR sort gate)” value was “high polyreactivity”.
For “QVQLVESGGGLVQAGGTLPLSCAATGSILGYYAMGWYRHAPGKERELVAITSGDSTYYADSVKGRFTISRDNAKNTVYLQMNSLKPEDTAVYYCAADVVRGSRYNRYGYWGQGTQVTVSS”, the “polyreactivity (PSR sort gate)” value was “high polyreactivity”.
In the case of “QVQLVESGGGLVQAGGTLRISCAASGRTFGIYAMGWSRQAPGKERELVAAITGRGGSTHYADSVKGRFTISRDNAKNTVYLQMNSLQPEDTAVYYCAADYRYNRGITSNKDYEYWGQGTQVSVSS”, the “polyreactivity (PSR sort gate)” value is reported as “low polyreactivity”.
With “QVQLVESGGGLVQAGGTLRLSCAASGFIFGPNAMGWYRQAPGKERELVAAISWIGSSTYYADSVKGRFTISRDNAKNTVYLEMNSLKPEDTAVYYCNADLWVPSYLWGDYWGQGTQVTVSS” the “polyreactivity (PSR sort gate)” value was “low polyreactivity”.
In the case of “QVQLVESGGGLVQAGGTLRLSCAASGFTFGFKAMGWYRQAPGKEREFVASITYRGGSTYYADSVKGRFTISRDNAKNSVYLQMNSLKPEDTAVYFCATVSTRLRDYWGQGTQVTVSS”, the “polyreactivity (PSR sort gate)” value is reported as “high polyreactivity”.
In the case of “QVQLVESGGGLVQAGGTLRLSCAASGFTFNYYAMGWYRQAPGKERELFAAISSRGTGTYYADSVKGRFTISRDNAKNTVYFQMNSLKPEDTAVYYCAADWFTWSWQETRYGYWGQGTQVTVSS”, the “polyreactivity (PSR sort gate)” value is reported as “high polyreactivity”.
With “QVQLVESGGGLVQAGGTLRLSCAASGFTYKYYGMGWYRQAPGKERELVAAITSSGSTYYADSVKGRFTISRDNAKNTVYLQMNSLKPEDTAVYYCAAEGQRWQRWRYNYWGQGTQVTVSS” the “polyreactivity (PSR sort gate)” value was “high polyreactivity”.
In the case of “QVQLVESGGGLVQAGGTLRLSCAASGGTFKVNAMGWYRQAPGKERELVASITGRGGSTYYADSVKGRFTISRDNAKNTVYLQMNSLKPEDTAVYYCAAAWRLGHLRFNSWGQGTQVTVSS”, the “polyreactivity (PSR sort gate)” value is reported as “high polyreactivity”.
For “QVQLVESGGGLVQAGGTLRLSCAASGIIFGYYAMGCYRQAPGKERELVAAINSGGSTYYADSVKGRFTISRDNAKNTVYLQMNSLKPEDTAVYYCKAKLYSKYWGQGTQVTVSS”, the “polyreactivity (PSR sort gate)” value was “high polyreactivity”.
For “QVQLVESGGGLVQAGGTLRLSCAASGITFYVYAMGWYRQAPGKEREFVAAINGRGGSTYYADSVKGRFTISRDNAKNTVYLQMNSLKPEDTAVFYCAAESLAIYYKYPPYDYWGQGTQVTVSS”, the “polyreactivity (PSR sort gate)” value was “high polyreactivity”.
With “QVQLVESGGGLVQAGGTLRLSCAASGPMFTLNAMGWYRQAPGKERELVAAINRGGSTYYADSVRGRFTISRDNAKNTVYLQMNSLKPEDTAVYYCAARRRQGGHDYWGQGTQVTVSS” the “polyreactivity (PSR sort gate)” value was “high polyreactivity”.
In the case of “QVQLVESGGGLVQAGGTLRLSCAASGRIFRVYAMGWYRQAPGKERELVATITRGGSTYADSVKGRFTISRDNAKNTVYLQMNSLKPEDTAVYYCAADLVLGYRYDYWGQVTQVTVSS”, the “polyreactivity (PSR sort gate)” value is reported as “high polyreactivity”.
In the case of “QVQLVESGGGLVQAGGTLRLSCAASGRTFGTYAMGWYRQEPGKERELVAAIRSNAGSTYYADSVKGRFTISRDNAKNTVYLQMNSLKPEDTAVYYCAKSYPSSRRYNFWGQGTQVTVSS”, the “polyreactivity (PSR sort gate)” value is reported as “high polyreactivity”.
In the case of “QVQLVESGGGLVQAGGTLRLSCAASGRTFGWYAMGWYRQAPGKERELVASITQRGGRTYYADSVKGRFTISRDNAKNTVYLQMNSLKPEDTAVYYCAAKTSPGMYYWGQGTQVTVSS”, the “polyreactivity (PSR sort gate)” value is reported as “high polyreactivity”.
For “QVQLVESGGGLVQAGGTLRLSCAASGRTFNGNAMGWYRQAPGKERELVAAISGGSTSYADSVKGRFTISRDNAKNTVYLQMNSLKPEDTAVYYCAATYIRRTIFRYNSWGQGTQVTVSS”, the “polyreactivity (PSR sort gate)” value was “low polyreactivity”.
With “QVQLVESGGGLVQAGGTLRLSCAASGRTLRRYAIGWYRQAPGTERELVADNSWRGTSTNYADSVKGRFTISRDNAKNTVYLQMNSLKPEDTAVYYCAAKQTYTRLHYLGPSVWDNYDYWGQGTQVTVSS” the “polyreactivity (PSR sort gate)” value was “high polyreactivity”.
For “QVQLVESGGGLVQAGGTLRLSCAASGSIVVGNTMGWYRQAPGKERELVAAITWSGGRTYYADSVKGRFTISRDIAKNTVYLQMNSLKPEDTAVYYCAAPTYLRRGMDTYNLGYGYWGQGTQVTVSS”, the “polyreactivity (PSR sort gate)” value was “high polyreactivity”.
With “QVQLVESGGGLVQAGGTLRLSCAASGSIWRYAMGWYRKAPGKERELVATIARRGGSTYYADSVKGRFTISRDNAKNTVYLLMNSLKPEDPAVYYCAAAESASSFRFDYWGQGTQVTVSS” the “polyreactivity (PSR sort gate)” value was “high polyreactivity”.
For “QVQLVESGGGLVQAGGTLRLSCAASGSSYFYYAMGWYRQAPRKERELVADITSGGSTDYADSVKGRFTISRDNAKNTVYVQINSVNPEDSAVYYCAADDFSGYGTEYDYWGQGTQVTVSS”, the “polyreactivity (PSR sort gate)” value was “low polyreactivity”.
For “QVQLVESGGGLVQAGGTLRLSCAASGSTFGYNAMGWYRQAPGKERELVARITSSGGSTYYADSVKGRFTISRDNAKNTVYLQMNSLKPEDTAVYYCAAGYPYRAVYRYYYWGQGTQVTVSS”, the “polyreactivity (PSR sort gate)” value was “high polyreactivity”.
For “QVQLVESGGGLVQAGGTLRLSCAASGSTFPGYAIGSNRQAPGKERELVAAISVSGDRTYYADSVKGRFTISRDNAKNTVYLQMNSLKPEDTAVYYCAVRTRYRSYGVWVGNYSWGQGTQVTVSS”, the “polyreactivity (PSR sort gate)” value was “high polyreactivity”.
With “QVQLVESGGGLVQAGGTLRLSCAASGSTFYENTMGWYRQARGKERELVAAISFRGGSTYYADSVKGRFTISRDNAKKTVYLQMNSLKPEDTAVYYCAKDYYTLRLYDYWGQGTLVTVSS” the “polyreactivity (PSR sort gate)” value was “low polyreactivity”.
In the case of “QVQLVESGGGLVQAGGTLRLSCAASGSTIKPYAMGWNRQAPGKERELVAVIRWRGGRTYYADSVKGRFTISRDNAKNTAYFQINSQNPADTAVYYCAAGGSQAAGGYGYYGYDYWGQGTQVTVSA”, the “polyreactivity (PSR sort gate)” value is reported as “low polyreactivity”.
In the case of “QVQLVESGGGLVQAGGTLRLSCAASGYIFAWYAMGWYRQAPGKERELVATITWRGGSTYYADSVKGRFTISRDNAKNTVYLQMNSLKPEDTAVYYCNKDVTPLHYDSWGQGTQVTVSS”, the “polyreactivity (PSR sort gate)” value is reported as “high polyreactivity”.
